The text below walks through data of US20030199071A1 (published 2003).

This test concerns the target FimH Q133A (E. coli, UniProt P08191 22-300). Put plainly: co-expression with FimC in E. coli; data not shown.

B1: FimC (wild type periplasmic chaperone of E. coli type 1 pili) (other)
chain: GVALGATRVIYPAGQKQVQLAVTNNDENSTYLIQSWVENADGVKDGRFIVTPPLFAMKGKKENTLRILDATNNQLPQDRESLFWMNVKAIPSMDKSKLTENTLQLAIISRIKLYYRPAKLALPPDQAAEKLRFRRSANSLTLINPTPYYLTVTELNAGTRVLENALVPPMGESTVKLPSDAGSNITYRTINDYGALTPKMTGVME
notes: also called FimC alone; wild type FimC
For the molecule B1, the binding result was “binds”.
